Data published in the supplement of paper PMC6757056.
± gives the standard deviation of the averaged measurements.

B1: library; a variant is named by its letters at N, in order (parent)
chain: GCUGUCACCGGUGUAUUACCCUAGUGGUCGACCGGUCUGAUGAGUCUNNNNNNAGACGAAACAGC

What was measured:
hypoxanthine [1] = variants of: B1; assay: normalized RNA/DNA level with ligand (relative to sTRSVctl = 100) (log10 (% of sTRSVctl)); ligand: hypoxanthine (xanthine aptamer); higher = less ribozyme self-cleavage, higher mRNA level; conditions: ligand concentration (+) RNA-Seq: 5 mM, HEK293T, reporter: mCherry (pCS4076), ligand present: yes
In short: (§1)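 Ribozyme switch library plasmids linked to reporters were introduced into HEK293T cells at 4 µg per 6-well well, with ligand, if any, added 1 h before. Total RNA was extracted with EDTA 72 h later, reverse-transcribed, amplified, barcoded and sequenced. RNA level was computed from RNA over DNA reads relative to a spiked-in non-cleaving sequence or the top sequences, then scaled and log-transformed. The top set was 25 sequences, values were ×100 and log10, and the cutoff was ≥100 DNA reads.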

hypoxanthine [2] = variants of: B1; assay: normalized RNA/DNA level without ligand (relative to sTRSVctl = 100) (log10 (% of sTRSVctl)); ligand: hypoxanthine (xanthine aptamer); higher = less ribozyme self-cleavage, higher mRNA level; conditions: HEK293T, reporter: mCherry (pCS4076), ligand present: no
In short: as §1

Variant	normalized RNA/DNA level with ligand (log10) (hypoxanthine [1])	normalized RNA/DNA level without ligand (log10) (hypoxanthine [2])
CAUACA	1.9 ± 0.069	1.78 ± 0.051
CAUACU	1.92 ± 0.04	1.83 ± 0.052
CAUACC	1.93 ± 0.023	1.891 ± 0.016
GAUAGC	1.87 ± 0.025	1.55 ± 0.097
GAUAGU	1.88 ± 0.059	1.72 ± 0.034
UAGGAG	1.872 ± 0.018	1.41 ± 0.04
UAGGAC	1.934 ± 0.0064	1.83 ± 0.037
UAUCUC	2 ± 0.021	1.99 ± 0.031
UAUCUA	1.92 ± 0.059	1.89 ± 0.024
UAUCUG	1.904 ± 0.0025	1.708 ± 0.0037
GAUCCU	1.979 ± 0.014	1.948 ± 0.012
GAUCCC	2.05 ± 0.042	1.889 ± 0.0035
GAUCCA	1.908 ± 0.0041	1.9 ± 0.03
AAUCAA	1.89 ± 0.066	1.75 ± 0.068
AAUCAG	1.838 ± 0.018	1.56 ± 0.041
CAUAAC	1.9194 ± 0.0019	1.83 ± 0.056
CAUAAG	1.92 ± 0.016	1.71 ± 0.019
GAGGGG	1.814 ± 0.015	1.34 ± 0.033
GAGGGA	1.9 ± 0.053	1.52 ± 0.022
GAGGGU	1.93 ± 0.032	1.689 ± 0.014
AAGUCC	1.893 ± 0.016	1.81 ± 0.072
AAGCCU	1.96 ± 0.02	1.85 ± 0.059
AAGCCC	1.97 ± 0.032	1.9 ± 0.041
CAGCAC	1.94 ± 0.035	1.81 ± 0.034

Variant	normalized RNA/DNA level with ligand (log10) (hypoxanthine [1])	normalized RNA/DNA level without ligand (log10) (hypoxanthine [2])
CAGCAG	1.89 ± 0.019	1.68 ± 0.11
CAGCAA	1.885 ± 0.01	1.637 ± 0.014
CACUCG	1.99 ± 0.066	1.92 ± 0.062
CACUCU	1.963 ± 0.0079	1.91 ± 0.026
CACUCC	1.93 ± 0.021	1.92 ± 0.063
CACUCA	1.93 ± 0.024	1.89 ± 0.033
AAGCUC	1.975 ± 0.002	1.959 ± 0.01
AAGCUA	1.91 ± 0.021	1.68 ± 0.056
AAGCUU	1.94 ± 0.062	1.86 ± 0.023
CAGGAG	1.91 ± 0.022	1.473 ± 0.012
CAGGAC	1.88 ± 0.063	1.782 ± 0.01
CAUAUG	1.94 ± 0.016	1.86 ± 0.042
CAUAUU	1.91 ± 0.044	1.8 ± 0.041
CAUAUA	1.9 ± 0.027	1.73 ± 0.028
CAUAUC	1.95 ± 0.0088	1.9 ± 0.012
CAGAUU	1.96 ± 0.024	1.768 ± 0.015
CAGAUC	1.98 ± 0.089	1.91 ± 0.032
CAGAUA	1.88 ± 0.052	1.57 ± 0.043
CAGAUG	1.94 ± 0.03	1.808 ± 0.011
GAUAUC	1.91 ± 0.03	1.908 ± 0.0029
GAUAUU	1.8969 ± 0.0013	1.84 ± 0.038
GAUCGC	1.93 ± 0.023	1.8 ± 0.053
GAUCGA	1.952 ± 0.0048	1.809 ± 0.0024
GAUCGU	1.96 ± 0.11	1.838 ± 0.013

Variant	normalized RNA/DNA level with ligand (log10) (hypoxanthine [1])	normalized RNA/DNA level without ligand (log10) (hypoxanthine [2])
AAUCCA	1.92 ± 0.046	1.865 ± 0.015
AAUCCC	1.94 ± 0.024	1.84 ± 0.035
UACUAU	1.89 ± 0.027	1.83 ± 0.05
GAGGCC	2.03 ± 0.031	1.93 ± 0.023
CAGUUG	1.93 ± 0.046	1.801 ± 0.015
CAGUUU	1.95 ± 0.053	1.79 ± 0.018
CAGUUC	1.91 ± 0.11	1.81 ± 0.031
CAGUUA	1.87 ± 0.055	1.49 ± 0.035
GAUCUA	1.95 ± 0.055	1.86 ± 0.033
GAUCUG	1.92 ± 0.051	1.58 ± 0.039
GAUCUC	1.939 ± 0.0052	1.976 ± 0.0046
GAGCUU	1.92 ± 0.1	1.846 ± 0.0057
GAGCUC	1.99 ± 0.045	1.91 ± 0.034
UAGCGU	1.88 ± 0.055	1.46 ± 0.12
UAGCGC	1.95 ± 0.023	1.85 ± 0.057
CAGCGA	1.94 ± 0.027	1.79 ± 0.035
CAGCGC	2.01 ± 0.038	1.847 ± 0.007
UAGGCU	1.957 ± 0.013	1.89 ± 0.027
UAGGCG	1.892 ± 0.01	1.67 ± 0.037
UAGGCA	1.905 ± 0.01	1.812 ± 0.0025
AAGUUC	1.9 ± 0.052	1.787 ± 0.0052
UAGUAA	1.939 ± 0.016	1.77 ± 0.022
UAGUAU	1.93 ± 0.041	1.761 ± 0.015
UAGUAC	1.94 ± 0.031	1.81 ± 0.035

Variant	normalized RNA/DNA level with ligand (log10) (hypoxanthine [1])	normalized RNA/DNA level without ligand (log10) (hypoxanthine [2])
UAGGGA	1.861 ± 0.011	1.49 ± 0.035
UAGGGC	1.962 ± 0.01	1.88 ± 0.057
CAUCGC	1.97 ± 0.064	1.9 ± 0.021
CAUCGG	1.92 ± 0.055	1.63 ± 0.036
CAUCGU	2 ± 0.038	1.94 ± 0.025
UAUACC	1.95 ± 0.12	1.88 ± 0.014
UAUACG	1.83 ± 0.042	1.686 ± 0.008
GACUUC	1.9476 ± 0.0019	1.98 ± 0.098
GACUUA	1.88 ± 0.0036	1.84 ± 0.023
GACUUU	1.923 ± 0.017	1.91 ± 0.056
AAGACU	1.95 ± 0.064	1.856 ± 0.0071
AAUACU	1.8942 ± 0.0003	1.833 ± 0.0049
AAGGUC	1.95 ± 0.08	1.89 ± 0.016
GACUCC	1.989 ± 0.019	1.96 ± 0.04
GACUCU	1.94 ± 0.092	1.93 ± 0.029
GACUCA	1.97 ± 0.029	1.892 ± 0.0056
AAGGCA	1.94 ± 0.035	1.64 ± 0.043
AAGGCU	1.9 ± 0.032	1.83 ± 0.05
AAGGCC	1.96 ± 0.066	1.9104 ± 0.0016
GAGUUA	1.891 ± 0.0028	1.64 ± 0.056
GAGUUC	1.92 ± 0.093	1.86 ± 0.053
AAGCAC	1.89 ± 0.027	1.69 ± 0.047
AAGCAU	1.88 ± 0.027	1.705 ± 0.0018
CAGUGC	1.96 ± 0.0096	1.814 ± 0.0038

Variant	normalized RNA/DNA level with ligand (log10) (hypoxanthine [1])	normalized RNA/DNA level without ligand (log10) (hypoxanthine [2])
UAGUGC	1.95 ± 0.038	1.712 ± 0.014
UAGCUG	1.944 ± 0.011	1.77 ± 0.02
UAGCUA	1.96 ± 0.078	1.884 ± 0.0057
UAGCUU	2.003 ± 0.015	1.84 ± 0.024
UAGCUC	1.98 ± 0.034	2.03 ± 0.038
AAGUGC	1.879 ± 0.018	1.53 ± 0.036
AAGAGC	1.9 ± 0.046	1.532 ± 0.009
AACUCU	1.9 ± 0.039	1.898 ± 0.015
AACUCC	2 ± 0.067	1.922 ± 0.011
AACUCA	1.975 ± 0.012	1.88 ± 0.023
GAUCAG	1.92 ± 0.05	1.72 ± 0.016
AAGAAC	1.9 ± 0.032	1.7418 ± 0.00032
GAUAAC	1.92 ± 0.079	1.712 ± 0.0033
AAUCGC	1.92 ± 0.03	1.82 ± 0.053
AAUCGU	1.94 ± 0.023	1.69 ± 0.022
AAUCGA	1.92 ± 0.076	1.63 ± 0.034
UAGACC	1.976 ± 0.016	1.92 ± 0.0073
UAGACG	1.8696 ± 0.00011	1.642 ± 0.013
UAGACU	1.925 ± 0.0021	1.83 ± 0.02
UAGACA	1.9 ± 0.038	1.857 ± 0.0097
